The record followed here is patent US20020146750A1 (published 2002).

B1: 7D1 (Fab, V domains shown)
VH: QVQLVQSGGGLVQPGGSLRLSCAASGFTFRSNAMGWVRQAPGKGLEWVSGISGSGGSTYYADSVKGRFTISRDNSKNTLYLQMNSLRAEDTAVYYCAKHTGGGVWDPIKHWGQGTLVTVSS
VL: EIVLTQSPLSLPVTPGEPASISCRSSQSLLHSNGYTYLDWYLQKPGQSPQLLIYSGSHRASGVPDRFSGSVSGTDFTLRISRVEAEDVGVYYCMQGLQSPFTFGPGTKVDIKR
notes: PH1 Fab variant; also called clone 7D1
B2: 7F9 (Fab, V domains shown)
VH: QVQLVQSGGGLVQPGGSLRLSCAASGFTFRSNAMGWVRQAPGKGLEWVSGISGSGGSTYYADSVKGRFTISRDNSKNTLYLQMNSLRAEDTAVYYCAKHTGGGVWDPIGYWGQGTLVTVSS
VL: EIVLTQSPLSLPVTPGEPASISCRSSQSLLHSNGYTYLDWYLQKPGQSPQLLIYSGSHRASGVPDRFSGSVSGTDFTLRISRVEAEDVGVYYCMQGLQSPFTFGPGTKVDIKR
notes: PH1 Fab variant; also called clone 7F9
B3: 7F3 (Fab, V domains shown)
VH: QVQLVQSGGGLVQPGGSLRLSCAASGFTFRSNAMGWVRQAPGKGLEWVSGISGSGGSTYYADSVKGRFTISRDNSKNTLYLQMNSLRAEDTAVYYCAIHTGGGVWDPIKYWGQGTLVTVSS
VL: EIVLTQSPLSLPVTPGEPASISCRSSQSLLHSNGYTYLDWYLQKPGQSPQLLIYSGSHRASGVPDRFSGSVSGTDFTLRISRVEAEDVGVYYCMQGLQSPFTFGPGTKVDIKR
notes: PH1 Fab variant; also called clone 7F3

T1 sequence (P15941 24-1255): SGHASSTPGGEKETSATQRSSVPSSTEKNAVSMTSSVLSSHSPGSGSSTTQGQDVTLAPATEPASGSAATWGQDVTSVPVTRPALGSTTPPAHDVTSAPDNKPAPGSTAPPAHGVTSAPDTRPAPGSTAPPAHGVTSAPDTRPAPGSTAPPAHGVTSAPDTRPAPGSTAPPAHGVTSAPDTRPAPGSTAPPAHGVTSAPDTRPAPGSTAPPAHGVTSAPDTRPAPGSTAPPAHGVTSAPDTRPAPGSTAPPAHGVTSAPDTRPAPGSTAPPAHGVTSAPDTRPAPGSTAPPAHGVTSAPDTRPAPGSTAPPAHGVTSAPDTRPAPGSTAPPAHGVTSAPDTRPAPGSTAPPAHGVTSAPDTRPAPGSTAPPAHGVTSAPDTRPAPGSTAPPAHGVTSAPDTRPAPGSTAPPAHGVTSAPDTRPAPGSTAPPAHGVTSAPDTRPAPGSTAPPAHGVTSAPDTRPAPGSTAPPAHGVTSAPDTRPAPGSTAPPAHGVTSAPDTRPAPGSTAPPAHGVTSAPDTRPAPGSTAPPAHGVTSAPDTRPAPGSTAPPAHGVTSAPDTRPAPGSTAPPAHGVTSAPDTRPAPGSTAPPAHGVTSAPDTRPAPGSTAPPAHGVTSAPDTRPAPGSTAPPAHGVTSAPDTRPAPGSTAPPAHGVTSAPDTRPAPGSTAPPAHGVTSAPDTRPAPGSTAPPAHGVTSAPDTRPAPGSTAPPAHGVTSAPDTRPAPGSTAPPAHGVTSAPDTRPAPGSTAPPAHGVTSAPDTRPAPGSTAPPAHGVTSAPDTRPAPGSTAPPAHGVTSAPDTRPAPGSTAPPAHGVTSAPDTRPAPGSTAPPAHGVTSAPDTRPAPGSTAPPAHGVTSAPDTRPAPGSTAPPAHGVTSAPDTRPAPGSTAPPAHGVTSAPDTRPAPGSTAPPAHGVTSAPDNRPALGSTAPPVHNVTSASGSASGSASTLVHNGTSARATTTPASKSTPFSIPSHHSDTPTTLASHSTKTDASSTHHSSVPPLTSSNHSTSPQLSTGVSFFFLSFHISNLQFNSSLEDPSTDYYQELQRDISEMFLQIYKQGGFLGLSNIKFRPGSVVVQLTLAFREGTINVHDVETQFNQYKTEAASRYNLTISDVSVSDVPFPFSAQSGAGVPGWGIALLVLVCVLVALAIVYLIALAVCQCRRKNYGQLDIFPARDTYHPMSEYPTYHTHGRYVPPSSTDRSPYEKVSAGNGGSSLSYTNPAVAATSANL

The test has as its target T1, MUC1 (mucin-1) on MUC1-expressing cells (human, UniProt P15941 24-1255, underglycosylated / partially glycosylated tumor-associated glycoforms).
T1 construct: whole, on cells; also called cellular MUC1; tumor-associated MUC1
Briefly: flow cytometry, purified Fab dilutions on cellular MUC1 (ETA cells); data not shown. As to the method: Specific binding of the Fabs was measured by FACScalibur analysis (Becton Dickinson, Oxnard, Calif.) as described by Henderikx et al. (Cancer Res., 58: 4324-4332 (1998)). For affinity studies on cells with recombinant Fabs, the following flow cytometry experiment was carried out. Fab fragments were purified from the periplasmic fraction by IMAC and gel filtration as described in (Roovers et al., Br. J. Cancer, 78: 1407-1416 (1998)). Protein concentrations were measured with the bicinchoninic acid method (Sigma, St. Louis, Mo., USA). Two-fold serial dilutions of these Fabs were made and incubated, for each dilution point, with 2×10⁵/100 μl ETA cells (transfected 3T3 cells (Acres et al., J. Immunol., 14: 136-1443 (1993)). After trypsinisation, cells were washed one time in RPMI 10% FCS, 0.1% NaN₃ (incubation buffer). Then, cells were incubated with appropriate dilution for 1 hour at room temperature (RT), on a rotator. As negative controls, 2×10⁵ 3T3 mouse fibroblast cells were also incubated with the highest concentrations of antibodies. As a secondary negative control, ETA cells without primary antibody were used. Cells were spun down by centrifugation for 3 minutes at 611×g. Between incubations, cells were washed with incubation buffer. In a second incubation, anti-Myc antibody (6 μg/ml 9E10), directed against the Myc-tagged Fabs, was added for 30 minutes in incubation buffer at RT. After washing once, rabbit anti-mouse-FITC was used at RT for 30 minutes (Dako). Detection of bound antibodies was performed by means of flow cytometry on a FACSCalibur (Becton Dickinson, Oxnard), and results analyzed with the CELLQuest program (Becton Dickinson). Mean intensity was plotted against the concentration of the antibodies.
The relative ranking of the three clones from highest to lowest affinity (i.e., 7D1>7F3>7F9) appear to have stayed the same, but the positioning of both the wild type clone PH1 and best BIAcore mutant 5C8 appearef to be different from what was expected on the basis of the BIAcore affinity.
Turning to B1, the binding result is recorded as “binds”.

As to B2, the binding result is reported as “binds”.

B3: the binding result was “binds”.
